# According to patent US20240358767A1, “STEM CELL DIFFERENTIATION AND CHEMICAL COMPOUNDS” (VERTEX PHARMACEUTICALS INCORPORATED, priority 2021, published 2024):
# “And” between values parts separate entries of the source, which are not always exact repeats. Identical values can stand only once.
# B1: Activin A: growth factor from the TGF-β superfamily; exemplary sequences SEQ ID NO: 1-15 in Table 1 (protein, UniProt P08476 311-426, looked up)
# Inhibin beta A chain: GLECDGKVNICCKKQFFVSFKDIGWNDWIIAPSGYHANYCEGECPSHIAGTSGSSLSFHSTVINHYRMRGHSPFANLKSCCVPTKLRPMSMLYYDDGQNIIKKDIQNMIVEECGCS
# modifications: Inhibin beta A chain
# Columns and labels:
# Format in all cases: cell-based
# human stem cells [1] = assay: Stage 1 differentiation of stem cells (Version A protocol), flow cytometry of Oct4 and Sox17 at completion of Stage 1 (S1C)
# Description: (§1) An exemplary base differentiation protocol, Version A, according to the present disclosure, was used for differentiating human stem cells into mature β cells capable of releasing insulin in response to glucose challenge in vitro.
# (§2) Version A protocol is a 6-stage stepwise protocol. With Version A protocol, stem cells were treated with reagents in a manner similar to the Version A described in Example 1 of U.S. Patent Publication No. US20220090020A1, which is incorporated by reference herein in its entirety. In some experiments, Version A was modified such that 100 ng/mL Activin A at Stage 1 was replaced with a different concentration of Activin A as described below.
# (§3) In one experiment, differentiation of the stem cells was initiated in spinner flasks using Version A protocol, and three different concentrations of Activin A (“AA”), 100 ng/mL (100%), 10 ng/mL (10%), and 5 ng/mL (5%), applied throughout the three days of Stage 1 were tested, while the remaining differentiation steps were kept the same. On QC days, e.g., upon completion of Stage 1 (“S1C”), completion of Stage 3 (“S3C”), or completion of Stage 5 (“S5C”), the cells were examined for their morphology and cell constituents. Specifically, 5 mL of cell cluster suspension solution were taken from the spinner flask, with 1 mL suspension aliquoted into a 24 well plate. Pictures of the cell clusters in the 24-well plate were taken under brightfield microscope. The cell clusters in the remaining 4 mL suspension were dispersed with TrypLE Express (Life Technologies; 12,604,013) at 37° C. for 20 min, fixed with 4% PFA for 20 mins at 4° C., blocked for 1 hour in FACS buffer (5% Donkey Serum and 0.05% Triton-100 in PBS) at room temperature, and stained with various antibodies against cell markers. Stained cells were then measured using an Accuri 6 flow cytometer (BD Biosciences) and analyzed using FlowJo software.
# In another experiment, a dose-response test was conducted to examine the effects of different concentrations of Activin A at Stage 1 on stem cell differentiation. Five different concentrations of Activin A were tested: 100 ng/mL (100%), 20 ng/mL (20%), 10 ng/mL (10%), 5 ng/mL (5%), and 0 ng/mL (0%).
# (§4) In one experiment, four different conditions for Stage 1 differentiation were tested: 100% Activin A, 10% Activin A, 10% Activin A plus GSK-690693 (“GSK”), or 10% Activin A plus BYL719 (“BYL”). Characterization of cell morphology and cell constituents were conducted similarly as described in EXAMPLE 1. The experiment was repeated for four times. Table 3 summarizes the quantification of flow cytometry analysis results at S1C, S3C, and S5C, and total viable cell yield at S5C for the four runs. In all the four runs, 0.1 μM […] or 0.04 μM BYL719 was applied for 3 days of Stage 1, except that in the last two runs, Run 4 and Run 5, 0.04 μM of BYL719 was applied for only 2 days (days S1d1 and S1d2).
# (§5) In one experiment, six different conditions for Stage 1 differentiation were tested: 100% Activin A, 10% Activin A, 10% Activin A plus GSK-690693, 10% Activin A plus BYL719, 10% Activin A plus GSK-690693 and BYL719, or 100% Activin A plus GSK-690693 and BYL719. Characterization of cell morphology and cell constituents were conducted similarly as described in EXAMPLE 1. FIGS. 2A-5E and Table 4 summarize the characterizations of the cells obtained under the six differentiation conditions at different stages.
# human stem cells [2] = assay: Version A differentiation, flow cytometry of Pdx1, Cdx2 and Sox2 at completion of Stage 3 (S3C); settings: for S3C Pdx1: Runs 3-5, listed as AA
# Description: as §1, §2, §3, §4, §5
# human stem cells [3] = assay: Version A differentiation, flow cytometry of Nkx6.1 and Isl1 at completion of Stage 5 (S5C)
# Description: as §1, §2, §3, §4, §5
# human stem cells [4] = assay: Total viable cell yield at S5C; settings: 10% AA (10 ng/mL Activin A) at Stage 1, Runs 4-5, listed as AA
# Description: as §1, §2, §4
# human stem cells [5] = assay: Version A differentiation, flow cytometry of Nkx6.1 and Isl1 on day 7 of Stage 6 (S6d7); settings: for S6d7 Nkx6.1 + /Isl1+: day 7 of Stage 6
# Description: as §1, §2, §3, §5
# In another experiment, the effects of the aforementioned six different conditions for Stage 1 differentiation on Stage 6 differentiation were tested under two Stage 6 medium regimens: regimen 1 (Table 5) and regimen 2 (Table 6).
# human stem cells [6] = assay: Cell cluster morphology under brightfield microscope
# Description: as §3
# [7] = 5% Activin A (5 ng/mL) throughout Stage 1
# [8] = 10% AA (10 ng/mL Activin A) at Stage 1
# [9] = 10% Activin A (10 ng/mL) throughout Stage 1
# [10] = 100% AA (100 ng/mL Activin A) at Stage 1
# [11] = 100% Activin A (100 ng/mL) throughout Stage 1
# [12] = reduced concentrations of Activin A (10% or 5%) vs 100%
# [13] = Stage 6 Regimen 1, 10% AA (10 ng/mL Activin A) at Stage 1
# [14] = Stage 6 Regimen 1, 100% AA (100 ng/mL Activin A) at Stage 1
# [15] = Stage 6 Regimen 2, 10% AA (10 ng/mL Activin A) at Stage 1
# [16] = Stage 6 Regimen 2, 100% AA (100 ng/mL Activin A) at Stage 1
molecule,measurement,setting,value
B1,S1c − Oct4−/Sox17+,human stem cells [1]; [7],76.4%
same,S1C Sox17 + /Oct4+,human stem cells [1]; [8],3.29%
same,S1C Sox17+/Oct4−,human stem cells [1]; [8],87.1%
same,S1C Sox17+/Oct4−,"human stem cells [1]; 10% AA (10 ng/mL Activin A) at Stage 1, Runs 2-5, listed as AA",61.6 and 80.5 and 87.1 and 73.8
same,S1c − Oct4−/Sox17+,human stem cells [1]; [9],87.1%
same,S1C Sox17 + /Oct4+,human stem cells [1]; [10],3.41%
same,S1C Sox17+/Oct4−,human stem cells [1]; [10],79.1%
same,S1C Sox17+/Oct4−,"human stem cells [1]; 100% AA (100 ng/mL Activin A) at Stage 1, Runs 2-5, listed as AA",78.2 and 88.2 and 79.1 and 84.5
same,S1c − Oct4−/Sox17+,human stem cells [1]; [11],79.1%
same,"percentage of Oct4-negative, Sox17-positive cells at S1C","human stem cells [1]; among 100%, 10% and 5% Activin A",not significant difference
same,percentage of Sox17−/Oct4+ cells at S1C,"human stem cells [1]; dose-response test, 100% Activin A (100 ng/mL) at Stage 1",under 1%
same,percentage of Sox17−/Oct4+ cells at S1C,"human stem cells [1]; dose-response test, Activin A reduced from 100% to 20%, 10%, or 5%",did not change significantly
same,"percentage of double negative cells (Sox17-negative, Oct4-negative) at S1C","human stem cells [1]; dose-response test, reduced Activin A (20%, 10%, and 5%) vs 100%",increase
same,S3c − Cdx2+/Pdx1+,human stem cells [2]; [7],27.0%
same,S3c− Sox2+/Pdx1+,human stem cells [2]; [7],9.76%
same,S3c − Cdx2+/Pdx1−,"human stem cells [2]; 5% Activin A (5 ng/mL) throughout Stage 1, first line with this head (r7)",6.22%
same,S3c − Cdx2+/Pdx1−,"human stem cells [2]; 5% Activin A (5 ng/mL) throughout Stage 1, second line with this head (r9)",3.63%
same,S3C Pdx1 + /Cdx2+,human stem cells [2]; [8],32.7%
same,S3C Pdx1 + /Sox2+,human stem cells [2]; [8],3.89%
same,S3C Pdx1,human stem cells [2]; [8],56.9 and 93.3 and 75.8
same,S3c − Cdx2+/Pdx1+,human stem cells [2]; [9],32.7%
same,S3c− Sox2+/Pdx1+,human stem cells [2]; [9],3.89%
same,S3c − Cdx2+/Pdx1−,"human stem cells [2]; 10% Activin A (10 ng/mL) throughout Stage 1, first line with this head (r7)",1.28%
same,S3c − Cdx2+/Pdx1−,"human stem cells [2]; 10% Activin A (10 ng/mL) throughout Stage 1, second line with this head (r9)",1.90%
same,S3C Pdx1 + /Cdx2+,human stem cells [2]; [10],3.21%
same,S3C Pdx1 + /Sox2+,human stem cells [2]; [10],38.8%
same,S3C Pdx1,human stem cells [2]; [10],72.7 and 95.3 and 84.61
same,S3c − Cdx2+/Pdx1+,human stem cells [2]; [11],3.21%
same,S3c− Sox2+/Pdx1+,human stem cells [2]; [11],38.8%
same,S3c − Cdx2+/Pdx1−,"human stem cells [2]; 100% Activin A (100 ng/mL) throughout Stage 1, first line with this head (r7)",0.061%
same,S3c − Cdx2+/Pdx1−,"human stem cells [2]; 100% Activin A (100 ng/mL) throughout Stage 1, second line with this head (r9)",1.29%
same,cells expressing Cdx2 at S3C,human stem cells [2]; [12],more
same,cells expressing Sox2 at S3C,human stem cells [2]; [12],fewer
same,percentage of Nkx6.1-positive cells at S5C,human stem cells [3]; 5% Activin A,reduced percentage
same,S5c − Nkx6.1+/Isl1+,human stem cells [3]; [7],25.9%
same,S5c − Nkx6.1+/Isl1−,human stem cells [3]; [7],25.3%
same,S5C Nkx6.1+/Isl1+,human stem cells [3]; [8],32.9%
same,S5C Nkx6.1+/Isl1+,"human stem cells [3]; 10% AA (10 ng/mL Activin A) at Stage 1, Runs 3-5, listed as AA",25.2 and 38.7 and 32.9
same,S5c − Nkx6.1+/Isl1+,human stem cells [3]; [9],32.9%
same,S5c − Nkx6.1+/Isl1−,human stem cells [3]; [9],49.5%
same,S5c − Nkx6.1+/Isl1−,"human stem cells [3]; 10% Activin A (10 ng/mL) throughout Stage 1, listed as AA",49.5%
same,S5C Nkx6.1+/Isl1+,human stem cells [3]; [10],32.6%
same,S5C Nkx6.1+/Isl1+,"human stem cells [3]; 100% AA (100 ng/mL Activin A) at Stage 1, Runs 3-5, listed as AA",31.5 and 36.6 and 32.6
same,S5c − Nkx6.1+/Isl1+,human stem cells [3]; [11],32.6%
same,S5c − Nkx6.1+/Isl1−,human stem cells [3]; [11],41.1%
same,S5c − Nkx6.1+/Isl1−,"human stem cells [3]; 100% Activin A (100 ng/mL) throughout Stage 1, listed as AA",41.1%
same,St5C yield,human stem cells [4],2.56e+06 mL⁻¹ and 4.1968e+06 mL⁻¹
same,S6d7 Nkx6.1 + /Isl1+,human stem cells [5]; [8],35.4%
same,S6d7 Nkx6.1 + /Isl1+,human stem cells [5]; [10],37.3%
same,Markers on S6d7 Isl1 + /Nkx6.1+,human stem cells [5]; [13],35.4
same,Markers on S6d7 Isl1 + /Nkx6.1−,human stem cells [5]; [13],5.34
same,Markers on S6d7 Isl1 + /Nkx6.1+,human stem cells [5]; [14],37.3
same,Markers on S6d7 Isl1 + /Nkx6.1−,human stem cells [5]; [14],7.38
same,Markers on S6d7 Isl1 + /Nkx6.1+,human stem cells [5]; [15],34.6
same,Markers on S6d7 Isl1 + /Nkx6.1−,human stem cells [5]; [15],5.42
same,Markers on S6d7 Isl1 + /Nkx6.1+,human stem cells [5]; [16],37.8
same,Markers on S6d7 Isl1 + /Nkx6.1−,human stem cells [5]; [16],7.16
same,cell cluster morphology at completion of Stage 5,human stem cells [6]; 5% Activin A,altered morphology
same,cell cluster morphology at completion of Stage 3,human stem cells [6]; 10% or 5% Activin A at Stage 1 vs 100% Activin A,altered morphology
same,cell cluster morphology at completion of Stage 1,"human stem cells [6]; 10% or 5% Activin A vs 100% Activin A, irregular shapes and rough edge",altered morphology
